{"source": "patent US20140057284A1", "about": "“PHOTOLUMINESCENT MOLECULAR COMPLEX AND METHOD FOR DETERMINING OF THE CONCENTRATION OF SAID MOLECULAR COMPLEX” (priority 2011, published 2014)", "assay_in_all_cases": "biochemical", "conditions_in_all_cases": "read-out: Percentages of residual activities of the kinase reaction", "key": {"CSK": {"biological_target": "CSK (Homo sapiens, UniProt P41240)", "sequence (P41240 whole entry, species assumed)": "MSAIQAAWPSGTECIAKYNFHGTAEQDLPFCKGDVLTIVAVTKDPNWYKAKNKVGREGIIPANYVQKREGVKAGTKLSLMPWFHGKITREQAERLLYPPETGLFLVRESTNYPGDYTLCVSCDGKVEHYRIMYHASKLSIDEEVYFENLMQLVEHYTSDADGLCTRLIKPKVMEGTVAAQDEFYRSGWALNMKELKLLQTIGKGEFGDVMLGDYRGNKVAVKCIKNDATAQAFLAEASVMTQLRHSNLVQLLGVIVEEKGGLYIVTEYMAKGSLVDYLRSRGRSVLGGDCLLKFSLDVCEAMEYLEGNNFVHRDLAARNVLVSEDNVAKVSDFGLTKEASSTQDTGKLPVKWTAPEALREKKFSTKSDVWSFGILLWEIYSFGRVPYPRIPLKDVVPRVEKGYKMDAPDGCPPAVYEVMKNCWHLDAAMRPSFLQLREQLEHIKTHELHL", "method": "(§1) Selectivity testing (Table 2) was performed on the commercial basis at the Division of Signal Transduction Therapy, University of Dundee. ATP concentrations that were used in testing were close to the Km value of the kinase."}, "NEK6": {"biological_target": "NEK6 (Homo sapiens, UniProt Q9HC98)", "method": "as §1"}, "BRSK2": {"biological_target": "BRSK2 (Homo sapiens, UniProt Q8IWQ3)", "method": "as §1"}, "HER4": {"biological_target": "HER4 (Homo sapiens, UniProt Q15303)", "method": "as §1"}, "HIPK1": {"biological_target": "HIPK1 (Homo sapiens, UniProt Q86Z02)", "method": "as §1"}, "ERK1": {"biological_target": "ERK1 (Homo sapiens, UniProt P27361)", "method": "as §1"}, "ASK1": {"biological_target": "ASK1 (Homo sapiens, UniProt Q99683)", "method": "as §1"}, "PAK6": {"biological_target": "PAK6 (Homo sapiens, UniProt Q9NQU5)", "method": "as §1"}, "JNK3": {"biological_target": "JNK3 (Homo sapiens, UniProt P53779)", "method": "as §1"}, "NEK2a": {"biological_target": "NEK2a (Homo sapiens, UniProt P51955)", "method": "as §1"}, "MARK1": {"biological_target": "MARK1 (Homo sapiens, UniProt Q9P0L2)", "method": "as §1"}, "TrkA": {"biological_target": "TrkA (Homo sapiens, UniProt P04629)", "method": "as §1"}, "RIPK2": {"biological_target": "RIPK2 (Homo sapiens, UniProt O43353)", "sequence (O43353 whole entry, species assumed)": "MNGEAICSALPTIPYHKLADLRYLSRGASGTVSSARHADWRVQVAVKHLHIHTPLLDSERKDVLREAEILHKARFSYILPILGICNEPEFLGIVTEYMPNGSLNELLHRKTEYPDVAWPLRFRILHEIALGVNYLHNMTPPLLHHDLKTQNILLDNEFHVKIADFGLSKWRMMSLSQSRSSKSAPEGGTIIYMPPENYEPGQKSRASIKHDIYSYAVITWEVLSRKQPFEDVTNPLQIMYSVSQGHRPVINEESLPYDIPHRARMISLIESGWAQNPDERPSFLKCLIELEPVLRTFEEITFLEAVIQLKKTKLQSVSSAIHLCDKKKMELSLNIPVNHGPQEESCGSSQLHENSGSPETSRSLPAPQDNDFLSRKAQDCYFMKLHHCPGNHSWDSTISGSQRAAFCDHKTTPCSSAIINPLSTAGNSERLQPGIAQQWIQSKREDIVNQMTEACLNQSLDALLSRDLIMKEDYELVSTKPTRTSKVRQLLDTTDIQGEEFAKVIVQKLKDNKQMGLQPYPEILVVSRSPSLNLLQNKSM", "method": "as §1"}, "JNK1": {"biological_target": "JNK1 (Homo sapiens, UniProt P45983)", "method": "as §1"}, "PKCγ": {"biological_target": "PKCγ (Homo sapiens, UniProt P05129)", "method": "as §1"}, "ERK2": {"biological_target": "ERK2 (Homo sapiens, UniProt P28482)", "method": "as §1"}, "YES1": {"biological_target": "YES1 (Homo sapiens, UniProt P07947)", "method": "as §1"}, "PAK4": {"biological_target": "PAK4 (Homo sapiens, UniProt O96013)", "method": "as §1"}, "PDK1": {"biological_target": "PDK1 (Homo sapiens, UniProt O15530)", "sequence (O15530 whole entry)": "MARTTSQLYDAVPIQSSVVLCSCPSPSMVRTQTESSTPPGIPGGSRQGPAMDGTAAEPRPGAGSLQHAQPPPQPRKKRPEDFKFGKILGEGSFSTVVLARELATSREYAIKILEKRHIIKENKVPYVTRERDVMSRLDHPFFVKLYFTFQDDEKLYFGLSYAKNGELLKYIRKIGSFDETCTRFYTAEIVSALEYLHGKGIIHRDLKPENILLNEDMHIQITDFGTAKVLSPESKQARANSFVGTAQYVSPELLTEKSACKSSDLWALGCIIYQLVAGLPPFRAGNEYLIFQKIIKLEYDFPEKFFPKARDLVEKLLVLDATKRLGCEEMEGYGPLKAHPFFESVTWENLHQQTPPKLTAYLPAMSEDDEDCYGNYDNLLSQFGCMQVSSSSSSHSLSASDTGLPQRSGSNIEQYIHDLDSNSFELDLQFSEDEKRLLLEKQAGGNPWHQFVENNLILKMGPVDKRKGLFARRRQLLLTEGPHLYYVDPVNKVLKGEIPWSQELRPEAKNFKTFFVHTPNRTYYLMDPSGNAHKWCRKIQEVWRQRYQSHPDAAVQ", "method": "as §1"}, "EPH-A4": {"biological_target": "EPH-A4 (Homo sapiens, UniProt P54764)", "method": "as §1"}, "CHK1": {"biological_target": "CHK1 (Homo sapiens, UniProt O14757)", "method": "as §1"}, "MST4": {"biological_target": "MST4 (Homo sapiens, UniProt Q9P289)", "method": "as §1"}, "DYRK2": {"biological_target": "DYRK2 (Homo sapiens, UniProt Q92630)", "method": "as §1"}, "IKKb": {"biological_target": "IKKb (Homo sapiens, UniProt O14920)", "method": "as §1"}, "STK33": {"biological_target": "STK33 (Homo sapiens, UniProt Q9BYT3)", "method": "as §1"}, "PAK5": {"biological_target": "PAK5 (Homo sapiens, UniProt Q9P286)", "method": "as §1"}, "PKBa": {"biological_target": "PKBa (Homo sapiens, UniProt P31749)", "method": "as §1"}, "IR": {"biological_target": "IR (Homo sapiens, UniProt P06213)", "sequence (P06213 28-1382)": "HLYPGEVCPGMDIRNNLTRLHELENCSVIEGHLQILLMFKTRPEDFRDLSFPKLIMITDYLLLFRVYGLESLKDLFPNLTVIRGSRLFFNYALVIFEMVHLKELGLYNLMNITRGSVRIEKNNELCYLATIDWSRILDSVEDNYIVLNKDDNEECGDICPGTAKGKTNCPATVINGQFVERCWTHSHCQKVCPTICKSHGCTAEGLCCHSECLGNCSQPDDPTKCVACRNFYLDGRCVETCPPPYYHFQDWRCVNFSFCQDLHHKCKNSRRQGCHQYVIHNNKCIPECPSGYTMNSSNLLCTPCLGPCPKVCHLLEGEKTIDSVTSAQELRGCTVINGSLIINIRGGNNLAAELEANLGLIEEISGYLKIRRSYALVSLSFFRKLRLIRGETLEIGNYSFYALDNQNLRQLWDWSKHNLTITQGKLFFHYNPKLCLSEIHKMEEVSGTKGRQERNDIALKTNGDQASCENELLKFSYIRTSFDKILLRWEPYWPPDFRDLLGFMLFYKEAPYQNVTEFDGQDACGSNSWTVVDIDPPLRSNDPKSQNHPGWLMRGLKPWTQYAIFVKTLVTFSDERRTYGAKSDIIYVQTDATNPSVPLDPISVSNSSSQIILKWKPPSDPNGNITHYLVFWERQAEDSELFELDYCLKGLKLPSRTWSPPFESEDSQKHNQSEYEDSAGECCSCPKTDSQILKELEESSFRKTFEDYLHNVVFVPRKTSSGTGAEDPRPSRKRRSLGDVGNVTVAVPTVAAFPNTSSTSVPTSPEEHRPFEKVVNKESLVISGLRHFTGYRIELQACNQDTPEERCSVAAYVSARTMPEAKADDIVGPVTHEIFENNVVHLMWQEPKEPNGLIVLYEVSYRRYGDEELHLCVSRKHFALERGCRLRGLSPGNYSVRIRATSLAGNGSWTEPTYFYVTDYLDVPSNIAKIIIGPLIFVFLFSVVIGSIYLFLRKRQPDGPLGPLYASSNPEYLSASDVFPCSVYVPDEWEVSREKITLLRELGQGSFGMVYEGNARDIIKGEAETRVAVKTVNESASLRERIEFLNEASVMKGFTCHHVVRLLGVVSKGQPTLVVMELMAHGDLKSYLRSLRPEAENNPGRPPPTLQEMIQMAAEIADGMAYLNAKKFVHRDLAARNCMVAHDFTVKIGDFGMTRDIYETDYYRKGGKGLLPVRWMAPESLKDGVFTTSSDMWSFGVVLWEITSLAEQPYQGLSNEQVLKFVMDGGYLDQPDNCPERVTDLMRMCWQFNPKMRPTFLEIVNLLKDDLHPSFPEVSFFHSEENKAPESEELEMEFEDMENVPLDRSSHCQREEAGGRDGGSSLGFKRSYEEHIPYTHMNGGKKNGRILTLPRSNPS", "method": "as §1"}, "S6K1": {"biological_target": "S6K1 (Homo sapiens, UniProt P23443)", "method": "as §1"}, "PKD1": {"biological_target": "PKD1 (Homo sapiens, UniProt Q15139)", "method": "as §1"}, "MPSK1": {"biological_target": "MPSK1 (Homo sapiens, UniProt O75716)", "sequence (O75716 whole entry, species assumed)": "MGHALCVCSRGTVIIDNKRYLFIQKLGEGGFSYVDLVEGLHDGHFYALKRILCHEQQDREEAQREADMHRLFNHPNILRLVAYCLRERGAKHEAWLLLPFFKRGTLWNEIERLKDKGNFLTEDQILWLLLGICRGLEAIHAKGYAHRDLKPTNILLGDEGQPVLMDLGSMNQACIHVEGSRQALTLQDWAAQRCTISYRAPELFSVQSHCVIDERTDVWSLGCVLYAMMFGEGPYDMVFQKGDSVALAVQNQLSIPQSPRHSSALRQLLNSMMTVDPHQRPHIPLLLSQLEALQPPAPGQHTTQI", "method": "as §1"}, "HIPK3": {"biological_target": "HIPK3 (Homo sapiens, UniProt Q9H422)", "method": "as §1"}, "MINK1": {"biological_target": "MINK1 (Homo sapiens, UniProt Q8N4C8)", "method": "as §1"}, "Aurora B": {"biological_target": "Aurora B (Homo sapiens, UniProt Q96GD4)", "method": "as §1"}, "CAMK1": {"biological_target": "CAMK1 (Homo sapiens, UniProt Q14012)", "method": "as §1"}, "PIM3": {"biological_target": "PIM3 (Homo sapiens, UniProt Q86V86)", "method": "as §1"}, "RSK1": {"biological_target": "RSK1 (Homo sapiens, UniProt Q15418)", "sequence (Q15418 whole entry, species assumed)": "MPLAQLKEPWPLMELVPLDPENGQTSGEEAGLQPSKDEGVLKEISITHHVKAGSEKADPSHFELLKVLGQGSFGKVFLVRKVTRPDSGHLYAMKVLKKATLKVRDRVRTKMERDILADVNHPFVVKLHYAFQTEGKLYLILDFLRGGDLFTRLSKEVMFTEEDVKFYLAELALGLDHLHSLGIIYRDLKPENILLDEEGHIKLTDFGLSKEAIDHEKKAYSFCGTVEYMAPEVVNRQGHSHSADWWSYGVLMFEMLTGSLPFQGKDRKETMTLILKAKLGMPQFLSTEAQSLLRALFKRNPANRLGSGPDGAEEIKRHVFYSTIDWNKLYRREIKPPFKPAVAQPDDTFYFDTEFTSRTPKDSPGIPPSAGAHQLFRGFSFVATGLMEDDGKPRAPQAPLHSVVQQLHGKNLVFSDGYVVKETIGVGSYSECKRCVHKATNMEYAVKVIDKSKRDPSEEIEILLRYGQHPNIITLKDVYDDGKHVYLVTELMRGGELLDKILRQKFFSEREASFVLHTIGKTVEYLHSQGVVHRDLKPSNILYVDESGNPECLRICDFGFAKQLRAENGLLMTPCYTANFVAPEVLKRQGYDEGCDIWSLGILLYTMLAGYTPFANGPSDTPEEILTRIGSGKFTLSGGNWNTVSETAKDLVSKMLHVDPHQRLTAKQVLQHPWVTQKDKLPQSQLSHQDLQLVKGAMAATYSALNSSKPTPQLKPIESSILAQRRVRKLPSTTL", "method": "as §1"}, "EPH-A2": {"biological_target": "EPH-A2 (Homo sapiens, UniProt P29317)", "sequence (P29317 24-976, species assumed)": "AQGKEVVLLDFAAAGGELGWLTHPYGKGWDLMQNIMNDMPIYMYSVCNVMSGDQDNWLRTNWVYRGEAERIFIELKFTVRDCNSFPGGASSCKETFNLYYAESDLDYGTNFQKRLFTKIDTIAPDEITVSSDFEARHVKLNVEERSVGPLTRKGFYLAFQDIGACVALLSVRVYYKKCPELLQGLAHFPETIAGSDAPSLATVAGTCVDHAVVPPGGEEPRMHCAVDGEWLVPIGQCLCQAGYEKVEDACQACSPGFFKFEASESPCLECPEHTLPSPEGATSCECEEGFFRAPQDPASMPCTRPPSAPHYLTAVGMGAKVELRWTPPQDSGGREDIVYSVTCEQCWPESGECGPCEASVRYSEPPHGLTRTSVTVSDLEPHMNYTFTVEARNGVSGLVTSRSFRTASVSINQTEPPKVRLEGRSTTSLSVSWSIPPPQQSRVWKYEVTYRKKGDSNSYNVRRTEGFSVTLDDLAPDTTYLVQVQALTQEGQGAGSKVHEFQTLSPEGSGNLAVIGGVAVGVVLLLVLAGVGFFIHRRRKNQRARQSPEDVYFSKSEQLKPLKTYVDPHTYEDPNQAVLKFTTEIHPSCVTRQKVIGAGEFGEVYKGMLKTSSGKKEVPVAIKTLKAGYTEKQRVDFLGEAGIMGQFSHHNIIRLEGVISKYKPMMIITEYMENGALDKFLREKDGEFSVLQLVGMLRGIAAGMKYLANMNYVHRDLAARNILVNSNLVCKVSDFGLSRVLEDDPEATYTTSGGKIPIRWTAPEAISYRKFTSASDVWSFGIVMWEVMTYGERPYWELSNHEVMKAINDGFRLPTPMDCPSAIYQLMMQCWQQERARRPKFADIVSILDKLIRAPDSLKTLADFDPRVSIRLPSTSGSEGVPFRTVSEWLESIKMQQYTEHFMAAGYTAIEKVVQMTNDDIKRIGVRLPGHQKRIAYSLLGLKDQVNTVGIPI", "method": "as §1"}, "NUAK1": {"biological_target": "NUAK1 (Homo sapiens, UniProt O60285)", "method": "as §1"}, "ZAP70": {"biological_target": "ZAP70 (Homo sapiens, UniProt P43403)", "method": "as §1"}, "EPH-B1": {"biological_target": "EPH-B1 (Homo sapiens, UniProt P54762)", "method": "as §1"}}}
{"smiles": "CN(C)c1ccc2c(c1)Oc1cc(N(C)C)ccc1C21OC(=O)c2cc(C(=O)NCCCC[C@@H](NC(=O)[C@@H](CCCNC(=N)N)NC(=O)[C@@H](CCCNC(=N)N)NC(=O)[C@@H](CCCNC(=N)N)NC(=O)[C@@H](CCCNC(=N)N)NC(=O)[C@@H](CCCNC(=N)N)NC(=O)[C@@H](CCCNC(=N)N)NC(=O)CCCCCNC(=O)[C@@H](CCCNC(=N)N)NC(=O)CCCCCNC(=O)c3ccc(-c4ccnc(N)n4)s3)C(N)=O)ccc21", "note": "[ARC-669]", "values": [{"measurement": "remaining activity at 1 µM", "setting": "CSK", "value": 51, "unit": "%"}, {"measurement": "remaining activity at 1 µM", "setting": "NEK6", "value": 71, "unit": "%"}, {"measurement": "remaining activity at 1 µM", "setting": "BRSK2", "value": 77, "unit": "%"}, {"measurement": "remaining activity at 1 µM", "setting": "HER4", "value": 82, "unit": "%"}, {"measurement": "remaining activity at 1 µM", "setting": "HIPK1", "value": 94, "unit": "%"}, {"measurement": "remaining activity at 1 µM", "setting": "ERK1", "value": 114, "unit": "%"}, {"measurement": "remaining activity at 1 µM", "setting": "ASK1", "value": 74, "unit": "%"}, {"measurement": "remaining activity at 1 µM", "setting": "PAK6", "value": 35, "unit": "%"}, {"measurement": "remaining activity at 1 µM", "setting": "JNK3", "value": 77, "unit": "%"}, {"measurement": "remaining activity at 1 µM", "setting": "NEK2a", "value": 55, "unit": "%"}, {"measurement": "remaining activity at 1 µM", "setting": "MARK1", "value": 65, "unit": "%"}, {"measurement": "remaining activity at 1 µM", "setting": "TrkA", "value": 101, "unit": "%"}, {"measurement": "remaining activity at 1 µM", "setting": "RIPK2", "value": 47, "unit": "%"}, {"measurement": "remaining activity at 1 µM", "setting": "JNK1", "value": 91, "unit": "%"}, {"measurement": "remaining activity at 1 µM", "setting": "PKCγ", "value": 13, "unit": "%"}, {"measurement": "remaining activity at 1 µM", "setting": "ERK2", "value": 80, "unit": "%"}, {"measurement": "remaining activity at 1 µM", "setting": "YES1", "value": 64, "unit": "%"}, {"measurement": "remaining activity at 1 µM", "setting": "PAK4", "value": 32, "unit": "%"}, {"measurement": "remaining activity at 1 µM", "setting": "PDK1", "value": 88, "unit": "%"}, {"measurement": "remaining activity at 1 µM", "setting": "EPH-A4", "value": 76, "unit": "%"}, {"measurement": "remaining activity at 1 µM", "setting": "CHK1", "value": 29, "unit": "%"}, {"measurement": "remaining activity at 1 µM", "setting": "MST4", "value": 45, "unit": "%"}, {"measurement": "remaining activity at 1 µM", "setting": "DYRK2", "value": 65, "unit": "%"}, {"measurement": "remaining activity at 1 µM", "setting": "IKKb", "value": 50, "unit": "%"}, {"measurement": "remaining activity at 1 µM", "setting": "STK33", "value": 76, "unit": "%"}, {"measurement": "remaining activity at 1 µM", "setting": "PAK5", "value": 18, "unit": "%"}, {"measurement": "remaining activity at 1 µM", "setting": "PKBa", "value": 1, "unit": "%"}, {"measurement": "remaining activity at 1 µM", "setting": "IR", "value": 52, "unit": "%"}, {"measurement": "remaining activity at 1 µM", "setting": "S6K1", "value": 4, "unit": "%"}, {"measurement": "remaining activity at 1 µM", "setting": "PKD1", "value": 37, "unit": "%"}, {"measurement": "remaining activity at 1 µM", "setting": "MPSK1", "value": 97, "unit": "%"}, {"measurement": "remaining activity at 1 µM", "setting": "HIPK3", "value": 97, "unit": "%"}, {"measurement": "remaining activity at 1 µM", "setting": "MINK1", "value": 51, "unit": "%"}, {"measurement": "remaining activity at 1 µM", "setting": "Aurora B", "value": 81, "unit": "%"}, {"measurement": "remaining activity at 1 µM", "setting": "CAMK1", "value": 3, "unit": "%"}, {"measurement": "remaining activity at 1 µM", "setting": "PIM3", "value": 7, "unit": "%"}, {"measurement": "remaining activity at 1 µM", "setting": "RSK1", "value": 2, "unit": "%"}, {"measurement": "remaining activity at 1 µM", "setting": "EPH-A2", "value": 98, "unit": "%"}, {"measurement": "remaining activity at 1 µM", "setting": "NUAK1", "value": 12, "unit": "%"}, {"measurement": "remaining activity at 1 µM", "setting": "ZAP70", "value": 82, "unit": "%"}, {"measurement": "remaining activity at 1 µM", "setting": "EPH-B1", "value": 90, "unit": "%"}]}
